Experiments:
Assay type in all cases: cell-based
mouse ES cells [1] = assay: Induction of CXCR4+/KIT+ WD progenitors from mouse ES cells, FACS at day 6.25; conditions: Bmp4 in procedure 2, activin A in procedure 1
Experimental: (§1) ES cells were differentiated in a serum-free medium as follows. The ES cells were dissociated with Accutase™ (ESGRO) and cultured in a serum-free mouse ES cell differentiation medium. The harvested cells were aggregated in a 96-well U-bottom low cell binding plate at 1,000 cells per aggregate to form embryonic bodies (EBs). After 48 hours (day 2), the EBs were dissociated with Accutase and re-aggregated in a serum-free differentiation medium supplemented with 10 ng/mL human activin A (R & D) (Procedure 1). After 24 hours (day 3), the medium was replaced with a medium containing 0.3 ng/mL human Bmp4 (R & D) and 10 μM CHIR 99021 (Procedure 2). After 36 hours (day 4.5), the medium was replaced with procedure 3 medium containing 0.1 μM retinoic acid, 100 ng/mL human Fgf9 and 10 μM SB431542 (Wako). On day 5.5 (24 hours later), the medium was replaced with a medium containing 0.1 μM retinoic acid, 100 ng/mL human Fgf9 and 5 μM CHIR99021 (“Procedure 4 medium”). The differentiation factors of the Hoxb7-GFP ES cell line are shown in the table below together with the differentiation factors of the Osr1-GFP ES cell line.
On day 6.25, the induced spheroids were harvested and dissociated by incubating in 0.25% trypsin/EDTA at 37° C. for 6 minutes. After blocking in normal mouse serum, cell surface marker (CXCR4/KIT) staining was carried out in a buffer containing 1% BSA, 1×HBSS and 0.035% NaHCO3. The FACS-sorted 3,000 Hoxb7-GFP+/CXCR4+/KIT+ cells were aggregated in a V-bottom 96-well low cell binding plate to form spheroids. Subsequently, these were cultured using the above E8.75 embryonic tissue culture conditions.
(§2) Cell aggregates induced from embryonic tissue or mouse ES cells/human iPS cells were dissociated and blocked with normal mouse serum and then cell surface marker staining was carried out in a buffer containing 1% BSA, 1×HBSS and 0.035% NaHCO3. Data analysis was performed with FlowJo software (Treestar).

mouse ES cells [2] = assay: AIM induction from mouse ES cells (procedure 3), AIM marker expression; conditions: Fgf9 at high concentrations
Experimental: as §1
Harvested spheroids or cells were homogenized, and total RNA was isolated using RNeasy Plus Micro Kit (Qiagen), and then a reverse-transcribed with random primers and Superscript III (Invitrogen). Quantitative PCR was carried out using Real-Time PCR system (Takara Bio) and Thunderbird SYBR qPCR Mix (Toyobo). With normalized by β-actin gene, relative mRNA expression levels were analyzed.
Next, signaling for the AIM differentiation procedure was hypothesized, which is partially different from that for PIM, based on the gene expression profile minimally conserved, between anterior intermediate mesoderm (AIM) (Osr1+, Pax2+, Pax8+, Emx2+, Lhx1+, Gata3+) and posterior intermediate mesoderm (PIM) (Osr1+, Wtl+, Hoxll+) (Procedure 3 in FIG. 2).

human iPS cells [3] = assay: Induction of ITGA8+/PDGFRA- nephron progenitor cells from human iPS cells, FACS at day 12; conditions: epiblast patterning stage, absence of Bmp4
Experimental: The previously reported protocol (Taguchi 2014 above) was modified and applied. In the presence of 10 μM Y27632 and 1 ng/mL human activin A, cells were reaggregated at 10,000 cells per aggregate in a V-bottom 96-well low cell binding plate, to form embryonic bodies (EBs). After 24 hours (day 1), the aggregates were transferred to a U-bottom 96-well low cell binding plate containing the mesoderm-inducing medium containing 10 μM CHIR. Subsequently, half of the culture medium was replaced with a fresh medium every other day (day 3 and day 5). On day 7, the medium was replaced with ABC3R medium containing 10 ng/mL human activin A, 3 ng/mL human Bmp4, 3 μM CHIR and 0.1 μM retinoic acid. On day 9, the medium was replaced with ClF medium containing 1 μM CHIR and 5 ng/mL human Fgf9.
as §2
Next, the optimal time window for inducing anterior or posterior intermediate mesoderm from the nascent mesoderm was examined. […]

human iPS cells [4] = assay: Induction of CXCR4+/KIT+ WD progenitors from human iPS cells, FACS at day 6.25; conditions: epiblast patterning stage (day 0 to day 1), combination of activin A and Bmp4
Experimental: Cells were reaggregated at 10,000 cells per aggregate in a V-bottom 96-well low cell binding plate using a medium containing 10 μM Y27632 and 10 ng/mL human activin A and 1 ng/mL human Bmp4 (“Procedure 1 medium”), to form embryonic bodies (EBs). After 24 hours (day 1), the aggregates were transferred to a U-bottom 96-well low cell binding plate containing a medium containing 10 μM CHIR and 1 ng/mL human Bmp4 (“Procedure 2 medium”). After 36 hours (day 2.5), the medium was replaced with a medium containing 0.1 μM retinoic acid, 100 ng/mL human Fgf9, 100 nM LDN193189 and 100 μM SB431542 (“Procedure 3 medium”). On day 4.5, the medium was replaced with a medium containing 0.1 μM retinoic acid, 5 μM CHIR, 100 ng/mL human Fgf9 and 30 nM LDN193189 (“Procedure 4 medium”).
On day 6.25, the induced spheroids were harvested and dissociated by incubating in 0.25% trypsin/EDTA for 6 minutes at 37° C. After blocking in normal mouse serum, cell surface marker (CXCR4/KIT) staining was carried out in a buffer containing 1% BSA, 1×HBSS and 0.035% NaHCO3. The FACS-sorted 5,000 of CXCR4+/KIT+ cells were seeded in a V-bottom 96-well low cell binding plate and precipitated by the centrifuge (210 G for 4 minutes). The supernatant was replaced with a medium containing 10 μM Y27632, 0.1 μM retinoic acid, 1 μM CHIR, 5 ng/mL human Fgf9, 100 ng/mL human Fgf1, 10 nM LDN193189 and 10% growth factor reduced Matrigel (“Procedure 5 medium”). On day 8.5, the spheroids were transferred to a medium containing 10 μM Y27632, 0.1 μM retinoic acid, 3 μM CHIR, 5 ng/mL human Fgf9, 1 ng/mL human GDNF, 100 ng/mL human Fgf1, 10 nM LDN193189 and 10% growth factor reduced Matrigel (“Procedure 6 medium”). On day 10.5, the spheroids were transferred to a medium containing 10 μM Y27632, 0.1 μM retinoic acid, 3 μM CHIR, 2 ng/mL human GDNF, 100 ng/mL human Fgf1, 10 nM LDN193189 and 10% growth factor reduce Matrigel (“Procedure 7 medium”).
as §2
Next, the optimal time window for inducing anterior or posterior intermediate mesoderm from the nascent mesoderm was examined. Since the nascent mesoderm population is maintained by the high concentrations of Wnt agonists, the incubation period with Wnt agonists was varied and the subsequent differentiation was applied with conditions specific to the UB or metanephric nephron progenitor cell lineage. The induction efficiency of CXCR4+/KIT+ WD progenitor or ITGA8+/PDGFRA− nephron progenitor cell fraction was examined at day 6.25 or day 12, respectively. […]

B1: activin A: homodimer of two inhibin BA chains (protein, UniProt P08476 311-426, looked up)
Inhibin beta A chain: GLECDGKVNICCKKQFFVSFKDIGWNDWIIAPSGYHANYCEGECPSHIAGTSGSSLSFHSTVINHYRMRGHSPFANLKSCCVPTKLRPMSMLYYDDGQNIIKKDIQNMIVEECGCS
modifications: Inhibin beta A chain
notes: homodimer of two inhibin BA chains
Mouse ES cells [1]
  UB induction versus MM induction, concentration dependence: higher concentration of activin A was preferred for UB induction
Mouse ES cells [2]
  induction of AIM markers: inhibitory to the induction of AIM markers
Human iPS cells [3]
  concentration at which induction of nephron progenitor cells was maximized: 1 ng/mL
Human iPS cells [4]
  concentration at which WD progenitor induction peaked: 10 ng/mL

Source: patent US20220135940A1, “METHOD FOR PRODUCING KIDNEY STRUCTURE HAVING DENDRITICALLY BRANCHED COLLECTING DUCT FROM PLURIPOTENT STEM CELLS” (NATIONAL UNIVERSITY CORPORATION KUMAMOTO UNIVERSITY, priority 2018, published 2022)
